Publication PMC9136605 (Acta Pharmaceutica Sinica. B, 2021)

Biological target: the molecule itself
Assay: crystal structure

B1: human LDHC L56E/I332Q double mutant (LDHC-mutant), recombinant with C-terminal His6-tag (enzyme)
chain: not shown
  stoichiometry N: 4
